In paper PMC8854672, “Tracing transport of protein aggregates in microgravity versus unit gravity crystallization” (NPJ Microgravity, 2022):
Where “and” joins values, the source holds several entries; their conditions need not be identical. Equal entries are not always repeated.

Molecular target: the molecule itself
Experiment: SEC; preparative HiLoad 26/600 Superdex 200 column after glutathione affinity chromatography; tetramer V_elution about 170 mL

B1: Plasmodium falciparum glutathione-S-transferase (enzyme, UniProt Q8ILQ7 1-211, looked up)
chain: MGDNIVLYYFDARGKAELIRLIFAYLGIEYTDKRFGVNGDAFVEFKNFKKEKDTPFEQVPILQIGDLILAQSQAIVRYLSKKYNICGESELNEFYADMIFCGVQDIHYKFNNTNLFKQNETTFLNEDLPKWSGYFEKLLKKNHTNNNNDKYYFVGNNLTYADLAVFNLYDDIETKYPSSLKNFPLLKAHNEFISNLPNIKNYITNRKESVY
notes: glutathione S-transferase of Plasmodium falciparum; recombinant; printed M.W. of the dimer ~56 kDa; Found as dimer and as tetramer; The dimer for crystallization was eluted with and stabilised by 10 mM S-(p-bromobenzyl)-GSH; The tetramer was labelled with Alexa Fluor 488 only after SEC and DLS; also called PfGST
  stoichiometry N: 2 and 4
